Measurements as given in patent publication US9777041B2, “Protein nanofibers from self-assembling pentamers” (New York University, priority 2013, dated 2017).
Values joined by “and” are separate entries in the source; they are usually repeats but may differ in a detail not shown here. Identical values can stand only once.

Key:
Zeta potential = type: physicochemical; conditions: 10 μM protein, pH 4
Description: Zeta potential: Zeta potential measurements were performed on a Zetasizer Nano Series model Nano Z590. 50 mM phosphate buffer at pH 4 was used to saturate the clear polycarbonate disposable zeta cell DTS1060C prior to injecting 750 μL protein samples at protein concentrations of 10 μM. The following settings were used for zeta potential measurements in the DTS (Nano) software: […] instrument settings, Smoluvchoski model, material protein, dispersant PBS, temperature of 25° C., viscosity 1.0200 cP, and dielectric constant of […]. Measurements were taken in triplicates, conducting 10 runs for each measurement, with a delay time of 2 seconds between each measurement.

[1] = Circular dichroism thermal melts at 222 nm, van't Hoff analysis; type: physicochemical; conditions: for Tm: 10 μM protein; for ΔG° (free energy of folding): at 25° C.; for ΔS°: ΔS° = ΔH°/Tm
Description: (§1) Circular dichroism: Circular dichroism (CD) measurements were conducted on a Jasco J-815 CD spectrometer. Wavelength and temperature scans were conducted with 10 μM (6.3×10^−2 mg/mL) protein concentrations. The wavelength spectrum was measured over a range from 190 to 250 nm with a step size of 1 nm Mean residue ellipticity (MRE) was calculated from raw data according to the procedure described in Gunasekar et al. 2009. Secondary structure analysis of α-helical, β-sheet, and random coil content was calculated with the K2D method using DichroWeb software. Temperature scans of each protein were performed over a range of 20-85° C. with a temperature step of 1° C./min at 222 nm. Scans were also performed at of 2° C./min and 5° C./min to evaluate dependence of thermal melt signatures on scan speed. All measurements were made in duplicates of independently prepared proteins and data represents the average. Thermodynamic properties of wt and Q were determined through analysis of thermal melts. A two-state model was used, where assumptions included monophasic behavior and reversible melting behavior. These assumptions were confirmed experimentally by melting (from 20 to 85° C.) and cooling (from 85 to 20° C.) the proteins. Calculation of thermodynamic parameters including Tm, ΔG°, ΔH°, and ΔS° were performed according to the method described by Greenfield.
Thermodynamic properties were assessed via thermal melt of the proteins at 222 nm. Prior to calculating thermodynamic constants, assumptions of monophasic behavior and melt reversibility were confirmed experimentally for wt and Q at all pHs by melting and cooling proteins (FIGS. 18a-18d). The van't Hoff equation was applied to thermal melts of the proteins in the range of 20-85° C.

[2] = Confocal microscopy of protein fibers in the presence of curcumin; type: physicochemical
Description: FIGS. 7a-7c show confocal microscopy of CC, Q54, and COMPcc^S wt, in the presence of curcumin. The mixture of protein to curcumin were all at a ratio of 1:5. […] All different proteins are in 50 mM phosphate buffer, pH 4. Protein and curcumin samples were combined and incubated for 12 hours prior to imaging. […] The width of COMPcc^S wt shown in FIG. 7c was determined to be 12.72 μm. […] Overall, Q54 fibers appeared to be more uniform in width, as well as more robust and consistent in fiber formation.
Confocal microscopy: Samples were imaged using a Leica TCS SP2 AOBS confocal microscope system equipped with argon ion and HeNe lasers. A 63×/1.4 NA oil-immersion objective was used for all of the images. Lab-Tek II chambered #1.5 German coverglass system was used as the imaging slide. Curcumin was excited using the 458 nm line of the argon laser, and images were taken with the detection window set between 465 and 560 nm. The pinhole aperture was set at an Airy value of 1.0, which was equivalent to sampling an ˜500 nm vertical z slice of the fiber, as estimated by the axial resolution, rz,confocal≈1.4λcm n/NA^2 (NA, numerical aperture; n, refractive index; λcm, emission wavelength (525 nm)). Interference contrast images were obtained using the Leica tube optics HC 1×/B apparatus with a focusing Bertrand lens. The 3D reconstructions were constructed using ImageJ 64 1.43 in concert with Amira 5.43, employing the Volren 3D rendering routine.

[3] = Circular dichroism wavelength scans (secondary structure); type: physicochemical; conditions: for −θ222 × 10^3 / −θmin × 10^3: 10 μM protein; for random coil / α helices / β sheet: CD, K2D method
Description: as §1
To assess the secondary structure of the proteins under acidic as well as neutral and basic conditions in solution, CD measurements were performed. […] The presence of residue P28 towards the center of Q may have influenced the secondary structure, showing decreased helical content when compared to wt at pH 4 and 10 (FIG. 16). The negative control, L, was completely unstructured, devoid of helical content at pH 4 (FIG. 11). […] As the pH increased, the helical content of soluble Q protein increased.
Mean residual ellipticities from circular dichroism measurements at pH 4, 8, and 10 for wt, L, and Q. The data presented in Table 5 represents the average and standard deviation of at least two replicates.

[4] = Curcumin binding fluorescence; conditions: in the presence of Zn^2+
Excerpt: FIG. 40. Fluorescence of C and Q or with incorporated trifluoroleucine/TFL (C TFL and Q TFL) in the presence of no metal, Ni (II), or Zn (II) and curcumin. An increase in fluorescence indicates structural stability of the protein as it is able to bind with curcumin, the fluorescent probe in this case.

**Q.** With “Q: Q54 protein, SEQ ID NO:2, variant of COMPcc; coiled-coil that self-assembles into homopentamers and nanofibers (MRGSHHHHHHGSIEGRVKEITFLKNTAPQMLRELQETNAALQDVRELLRQQSKL)” as the substance, how does the zeta potential (Zeta potential; absence of curcumin) read?
**A.** 19.1±2.5 mV

**Q.** What about the “zeta potential, maximum value” (Zeta potential; curcumin concentration of 40 μM) of the same substance?
**A.** 25.2±0.8 mV

**Q.** What about the “melting temperatures (Tm)” value ([1]; across all pH values (4, 8, 10)) of the same substance?
**A.** 46.4-63.5 °C

**Q.** What about the “increase in Tm compared to the parent wt” value ([1]; pH 4) of the same substance?
**A.** 7.2 °C

**Q.** What about the “ΔH° (van't Hoff enthalpy)” value ([1]; pH 4) of the same substance?
**A.** -32.3 kcal/mol

**Q.** And the Tm ([1]; pH 4)?
**A.** 55.3 °C

**Q.** What about the “ΔG° (free energy of folding)” value ([1]; pH 4) of the same substance?
**A.** -3.3 kcal/mol

**Q.** What about the ΔS° ([1]; pH 4) of the same substance?
**A.** -97.1 cal/(mol·K)

**Q.** What about the “increase in Tm compared to the parent wt” value ([1]; pH 8) of the same substance?
**A.** 14.7 °C

**Q.** What about the “ΔH° (van't Hoff enthalpy)” value ([1]; pH 8) of the same substance?
**A.** -32.6 kcal/mol

**Q.** And the Tm ([1]; pH 8)?
**A.** 63.5 °C

**Q.** What about the “ΔG° (free energy of folding)” value ([1]; pH 8) of the same substance?
**A.** -3.8 kcal/mol

**Q.** What about the ΔS° ([1]; pH 8) of the same substance?
**A.** -96.8 cal/(mol·K)

**Q.** And the “ΔH° (van't Hoff enthalpy)” value ([1]; pH 10)?
**A.** -46.4 kcal/mol

**Q.** And the Tm ([1]; pH 10)?
**A.** 46.4 °C

**Q.** What about the “ΔG° (free energy of folding)” value ([1]; pH 10) of the same substance?
**A.** -3.1 kcal/mol

**Q.** What about the ΔS° ([1]; pH 10) of the same substance?
**A.** -145 cal/(mol·K)

**Q.** And the microfiber diameter ([2]; in the presence of curcumin (10 μM Q, 50 μM curcumin), pH 4)?
**A.** 16 μm and 16.0±5.6 μm

**Q.** What about the “average width of protein fibers” value ([2]; protein:curcumin 1:5, 20 mM protein, 100 mM curcumin, 50 mM phosphate buffer pH 4, 12 hours) of the same substance?
**A.** 16.87±9 μm

**Q.** What about the “double minimum, ellipticity at 206 nm” value ([3]; 206 nm, pH 4 (Table 5)) of the same substance?
**A.** −6.54×10^3 deg cm^2 dmol^−1

**Q.** What about the “double minimum, ellipticity at 222 nm” value ([3]; 222 nm, pH 4 (Table 5)) of the same substance?
**A.** −3.71×10^3 deg cm^2 dmol^−1

**Q.** And the “−θ222 × 10^3” value ([3]; pH 4)?
**A.** 3.71 10^3 deg cm^2 dmol^-1

**Q.** What about the “−θmin × 10^3” value ([3]; pH 4) of the same substance?
**A.** 6.54 10^3 deg cm^2 dmol^-1

**Q.** What about the random coil ([3]; pH 4) of the same substance?
**A.** 55%

**Q.** What about the α helices ([3]; pH 4) of the same substance?
**A.** 9%

**Q.** And the β sheet ([3]; pH 4)?
**A.** 36%

**Q.** What about the “−θ222 × 10^3” value ([3]; pH 8) of the same substance?
**A.** 6.63 10^3 deg cm^2 dmol^-1

**Q.** And the “−θmin × 10^3” value ([3]; pH 8)?
**A.** 7.79 10^3 deg cm^2 dmol^-1

**Q.** And the random coil ([3]; pH 8)?
**A.** 57%

**Q.** What about the α helices ([3]; pH 8) of the same substance?
**A.** 22%

**Q.** And the β sheet ([3]; pH 8)?
**A.** 21%

**Q.** And the “−θ222 × 10^3” value ([3]; pH 10)?
**A.** 6.76 10^3 deg cm^2 dmol^-1

**Q.** And the “−θmin × 10^3” value ([3]; pH 10)?
**A.** 8.07 10^3 deg cm^2 dmol^-1

**Q.** What about the random coil ([3]; pH 10) of the same substance?
**A.** 57%

**Q.** What about the α helices ([3]; pH 10) of the same substance?
**A.** 25%

**Q.** And the β sheet ([3]; pH 10)?
**A.** 18%

**Q.** What about the “binding to small molecule (curcumin fluorescence)” value [4] of the same substance?
**A.** substantially increase the binding to small molecule
